Numbering of substitutions follows the chain as printed. Names may count otherwise. Where two headings read alike, the source gives them in different places.
T1: human CEA on cells (human, UniProt P06731 35-685)
T1 construct: whole, on cells; also called CT26/CEA; MKN45
T1 sequence (looked up): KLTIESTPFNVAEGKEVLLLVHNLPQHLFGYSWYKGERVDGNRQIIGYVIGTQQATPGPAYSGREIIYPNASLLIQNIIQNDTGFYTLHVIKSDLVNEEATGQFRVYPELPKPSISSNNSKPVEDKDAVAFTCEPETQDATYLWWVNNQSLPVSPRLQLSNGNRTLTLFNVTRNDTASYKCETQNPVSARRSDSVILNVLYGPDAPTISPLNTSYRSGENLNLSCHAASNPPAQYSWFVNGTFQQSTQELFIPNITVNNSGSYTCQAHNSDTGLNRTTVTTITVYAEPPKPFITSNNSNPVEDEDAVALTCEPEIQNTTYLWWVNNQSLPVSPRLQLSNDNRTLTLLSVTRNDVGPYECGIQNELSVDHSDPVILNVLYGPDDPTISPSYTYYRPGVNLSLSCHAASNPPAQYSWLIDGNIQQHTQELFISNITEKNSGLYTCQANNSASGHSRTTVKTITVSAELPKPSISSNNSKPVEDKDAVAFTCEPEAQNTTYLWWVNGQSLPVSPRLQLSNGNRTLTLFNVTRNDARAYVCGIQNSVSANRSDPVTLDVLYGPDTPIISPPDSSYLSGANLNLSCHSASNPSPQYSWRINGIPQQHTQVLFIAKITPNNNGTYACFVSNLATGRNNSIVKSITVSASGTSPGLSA

B1: A-CD137×CEA (bispecific antibody, human IgG1, kappa)
heavy: QVQLVQSGAEVKKPGASVKVSCKASGYIFTSYYLHWVRQAPGQGLEWIGYINPQTGKTSYAQKFQGRVTMTRDTSTSTVYMELSSLRSEDTAVYYCAREYGNYNYPLDYWGQGTLVTVSSASTKGPSVFPLAPSSKSTSGGTAALGCLVKDYFPEPVTVSWNSGALTSGVHTFPAVLQSSGLYSLSSVVTVPSSSLGTQTYICNVNHKPSNTKVDKKVEPKSCDKTHTCPPCPAPPAAGPSVFLFPPKPKDTLMISRTPEVTCVVVDVSHEDPEVKFNWYVDGVEVHNAKTKPREEQYNSTYRVVSVLTVLHQDWLNGKEYKCKVSNKALAAPIEKTISKAKGQPREPQVYTLPPSREEMTKNQVSLTCLVKGFYPSDIAVEWESNGQPENNYKTTPPVLDSDGSFFLYSKLTVDKSRWQQGNVFSCSVMHEALHNHYTQKSLSLSPGKGGGGSEVQLLESGGGLVQPGGSLRLSCAASGFMLSAEDVGWVRQAPGKGLEWVSAILDFGGSTYYADSVKGRFTISRDNSKNTLYLQMNSLRAEDTAVYYCARVVYHAGGGVTFDYWGQGTLVTVSS
light: DIQMTQSPSSLSASVGDRVTITCRASENQYGYLAWYQQKPGKVPKLLIYNYKNLVEGVPSRFSGSGSGTDFTLTISSLQPEDVATYYCQHHLGTPYTFGQGTKVEIKRTVAAPSVFIFPPSDEQLKSGTASVVCLLNNFYPREAKVQWKVDNALQSGNSQESVTEQDSKDSTYSLSSTLTLSKADYEKHKVYACEVTHQGLSSPVTKSFNRGEC
notes: Symmetric IgG-like; inert Fc; also called Format A
B2: A-CD137×CEA-M8 (bispecific antibody, human IgG1, kappa)
heavy: B1 heavy with F481R, M482T, S529A, N538S
light: B1 light
B3: Format A - BGA-3386 (bispecific antibody, human IgG1, kappa)
heavy: B1 heavy with M482T, L483V, F508K, D516E, S529A, N538S, V553I, Y565T
light: B1 light
notes: Light chain by the description of Format A
B4: Format A - BGA-9442 (bispecific antibody, human IgG1, kappa)
heavy: B1 heavy with M482T, L483I, F508S, D516E, S529A, N538S, V553Y, Y565L, W566R, L571Q
light: B1 light
notes: as for B3
B5: Format A-BGA-5623 (bispecific antibody, human IgG1, kappa)
heavy: B1 heavy with M482T, L483V, F508K, D516E, S529A, N538S, V553I, Y565T, W566R, L571Q
light: B1 light
notes: Module ratio 2:2, inert Fc
B6: CH3-BGA-4712-M3 (other)
chain: GQPREPQVYTLPPSREEMTKNQVSLTCLVKGFYPSDIAVEWESNGQPENNYKTTPPVLDSDGSFFLYSKLTVDKSRWQQGNVFSCSVMHEALHNHYTQKSLSLSPGKGGGGSEVQLLESGGGLVQPGGSLRLSCAASGFTLSAEDVGWVRQAPGKGLEWVSAILDFGGSTYYAESVKGRFTISRDNAKNTLYLQMSSLRAEDTAVYYCARVVYHAGGGVTFDYWGQGTLVTVSS
notes: Tested as bacterial supernatant; expressed as a dimer of CH3 fusion proteins from the phagemid; also called CH3 fusion of anti-huCD137 VH domain antibody
B7: CH3-BGA-4712-M3 with W47F mutation in VH region (other)
chain: B6 chain with W159F
B8: CH3-BGA-4712-M3 with W47G mutation in VH region (other)
chain: B6 chain with W159G
notes: built from pieces so that position 47 counts on the VH
B9: CH3-BGA-4712-M3 with W47Y mutation in VH region (other)
chain: B6 chain with W159Y
B10: D-CD137×CEA (bispecific antibody, human IgG1, kappa)
heavy: EVQLLESGGGLVQPGGSLRLSCAASGFMLSAEDVGWVRQAPGKGLEWVSAILDFGGSTYYADSVKGRFTISRDNSKNTLYLQMNSLRAEDTAVYYCARVVYHAGGGVTFDYWGQGTLVTVSSSGGGGSQVQLVQSGAEVKKPGASVKVSCKASGYIFTSYYLHWVRQAPGQGLEWIGYINPQTGKTSYAQKFQGRVTMTRDTSTSTVYMELSSLRSEDTAVYYCAREYGNYNYPLDYWGQGTLVTVSSASTKGPSVFPLAPSSKSTSGGTAALGCLVKDYFPEPVTVSWNSGALTSGVHTFPAVLQSSGLYSLSSVVTVPSSSLGTQTYICNVNHKPSNTKVDKKVEPKSCDKTHTCPPCPAPPAAGPSVFLFPPKPKDTLMISRTPEVTCVVVDVSHEDPEVKFNWYVDGVEVHNAKTKPREEQYNSTYRVVSVLTVLHQDWLNGKEYKCKVSNKALAAPIEKTISKAKGQPREPQVYTLPPSREEMTKNQVSLTCLVKGFYPSDIAVEWESNGQPENNYKTTPPVLDSDGSFFLYSKLTVDKSRWQQGNVFSCSVMHEALHNHYTQKSLSLSPGK
light: B1 light
notes: Symmetric IgG-like; also called Format D

Key:
human CD137 ECD-mIgG2a [1] = biological target: human CD137 ECD-mIgG2a (human); assay: SPR, human CD137 ECD-mIgG2a
human CEA on cells [2] = biological target: T1, human CEA on cells; assay: flow cytometry on CT26/CEA cells
[3] = biological target: T2, full-length human CD137 (huCD137) (human, UniProt Q07011 24-255); assay: flow cytometry on Hut78/huCD137 cells
T2 construct: On transduced Hut78 cells (Hut78/huCD137), transiently on HEK293 cells, or natively on PBMC/T cells; also called TNFRSF9; 4-1BB

human CD137 ECD-mIgG2a [4] = biological target: human CD137 ECD-mIgG2a (human); assay: SPR, antibody captured on anti-human Fc surface; analyte taken as human CD137 ECD-mIgG2a
[5] = biological target: T2, full-length human CD137 (huCD137); assay: flow cytometry on Hut78/huCD137 cells; remark: listed apart in the source
[6] = biological target: T2, full-length human CD137 (huCD137); assay: cell-based or functional assay
human CEA on cells [7] = biological target: T1, human CEA on cells; assay: flow cytometry on CT26/CEA cells; remark: listed apart in the source
Excerpt: (§1) Cell fluorescence was quantified using a flow cytometer (Guava easyCyte™ 8HT, Merck-Millipore, USA).

[8] = biological target: T2, full-length human CD137 (huCD137); assay: flow cytometry on Hut78/huCD137 cells; remark: listed apart in the source
Excerpt: as §1

human CD137 ECD-mIgG2a [9] = biological target: human CD137 ECD-mIgG2a (human); assay: SPR, multispecific antibody captured on anti-human IgG Fc chip, human CD137 ECD-mIgG2a flowed over
Description: Briefly, anti-human IgG (Fc) antibody was immobilized on an activated CM5 biosensor chip (Cat.: BR100839, GE Life Sciences). Anti-huCD137 monoclonal antibodies or multispecific antibodies were flown through the chip surface and captured by anti-human IgG (Fc) antibody. […] The equilibrium dissociation constant (KD)) was calculated as the ratio koff/kₒₙ.

human CD137 ECD-mIgG2a [10] = biological target: human CD137 ECD-mIgG2a (human); assay: SPR (BIAcore T-200): antibody captured on anti-human IgG (Fc) CM5 chip, human CD137 ECD-mIgG2a as analyte, 1:1 Langmuir fit
Description: Characterization of anti-huCD137 VH domain antibodies were made by SPR assays using BIAcore™ T-200 (GE Life Sciences). Briefly, anti-human IgG (Fc) antibody was immobilized on an activated CM5 biosensor chip (Cat.: BR100839, GE Life Sciences). Anti-huCD137 domain antibodies were flowed over the chip surface and captured by anti-human IgG (Fc) antibody. […] The equilibrium dissociation constant (KD) was calculated as the ratio koff/kₒₙ.

[11] = biological target: T2, full-length human CD137 (huCD137); assay: cell-based or functional assay; remark: listed apart in the source
human CD137 ECD-mIgG2a [12] = biological target: human CD137 ECD-mIgG2a (human); assay: ELISA on coated human CD137-ECD-mIgG2a with supernatant containing the CH3 fusion [panel B]

Sequence of human CD137 ECD-mIgG2a (human) (chain, as listed by the source limits assumed): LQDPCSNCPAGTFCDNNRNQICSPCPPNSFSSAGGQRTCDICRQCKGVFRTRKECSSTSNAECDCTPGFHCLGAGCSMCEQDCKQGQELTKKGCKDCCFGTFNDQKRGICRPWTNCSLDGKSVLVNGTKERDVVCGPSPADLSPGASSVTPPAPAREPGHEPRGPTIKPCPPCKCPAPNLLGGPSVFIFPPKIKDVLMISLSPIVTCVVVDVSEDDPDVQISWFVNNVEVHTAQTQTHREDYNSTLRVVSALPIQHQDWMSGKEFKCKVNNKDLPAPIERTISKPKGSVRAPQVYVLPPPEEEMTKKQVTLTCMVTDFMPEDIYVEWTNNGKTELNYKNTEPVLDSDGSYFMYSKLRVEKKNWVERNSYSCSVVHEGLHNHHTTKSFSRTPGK
T2 sequence (Q07011 24-255 limits assumed): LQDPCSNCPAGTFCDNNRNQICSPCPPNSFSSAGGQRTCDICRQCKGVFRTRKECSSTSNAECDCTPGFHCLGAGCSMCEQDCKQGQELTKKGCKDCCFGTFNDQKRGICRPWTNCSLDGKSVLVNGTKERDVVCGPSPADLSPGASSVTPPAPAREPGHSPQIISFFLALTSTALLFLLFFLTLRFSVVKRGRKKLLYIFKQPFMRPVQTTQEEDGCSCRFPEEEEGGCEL

Binder | Functions EC50(ug/ml), PBMC based cytokine release assay [6] | Functions Top, PBMC based cytokine release assay [6] | EC50 [8] | Kd (human CD137 ECD-mIgG2a [9]) | Kd (human CD137 ECD-mIgG2a [10]) | koff (human CD137 ECD-mIgG2a [10]) | kon (human CD137 ECD-mIgG2a [10]) | binding result (human CD137 ECD-mIgG2a [12]) | also measured
B1 |  |  |  |  |  |  |  |  | Kd (human CD137 ECD-mIgG2a [1]): 360 nM; EC50 (human CEA on cells [2]): 0.75 µg/mL; EC50 [3]: 0.57 µg/mL; Kd (human CD137 ECD-mIgG2a [4]): 360 nM; koff (human CD137 ECD-mIgG2a [4]): 0.00215 s⁻¹; kon (human CD137 ECD-mIgG2a [4]): 5970 M⁻¹ s⁻¹
B2 |  |  |  |  |  |  |  |  | EC50 (read off the curve) [5]: ~0.5 µg/mL; Kd (human CD137 ECD-mIgG2a [4]): 184 nM; koff (human CD137 ECD-mIgG2a [4]): 0.0534 s⁻¹; kon (human CD137 ECD-mIgG2a [4]): 290000 M⁻¹ s⁻¹
B3 | 0.0768 µg/mL | 1950 | 0.21 µg/mL | 21.4 nM | 21.4 nM | 0.000953 s⁻¹ | 44600 M⁻¹ s⁻¹ |  | EC50 (human CEA on cells [7]): 0.21 µg/mL
B4 | 0.233 µg/mL | 1720 | 0.5 µg/mL | 164 nM | 151 nM | 0.00604 s⁻¹ | 39900 M⁻¹ s⁻¹ |  | EC50 (human CEA on cells [7]): 0.5 µg/mL
B5 | 0.341 µg/mL | 2510 | 0.38 µg/mL | 94.8 nM | 111 nM | 0.0029 s⁻¹ | 26100 M⁻¹ s⁻¹ |  | Functional assay EC50 (ug/ml), in vitro CD137 activation (PBMC cytokine release) [11]: 0.31 µg/mL
B6 |  |  |  |  |  |  |  | binds | 
B7 |  |  |  |  |  |  |  | no binding | 
B8 |  |  |  |  |  |  |  | no binding | 
B9 |  |  |  |  |  |  |  | no binding | 
B10 |  |  |  |  |  |  |  |  | Kd (human CD137 ECD-mIgG2a [1]): 78 nM; EC50 (human CEA on cells [2]): 3.78 µg/mL; EC50 [3]: 2.28 µg/mL
